“Also recorded” adds a separate entry of the source. One block for each molecule: values may come before it. Where no end group is shown, it is not given here.
Key:
DU145 cells = assay: FACS binding to cell lines; type: cell-based, human
Text: Clearly, mAb806 and mAb175 can recognize only a small proportion of the EGFR on cells in the presence of an autocrine stimulation loop.

EGFR fragments = assay: Western blot of GH/EGFR fragment fusion proteins; type: binding, human
Method: The day prior to transfection with these fragments, human 293T embryonic-kidney fibroblasts were seeded at 8×10^5 per well in 6-well tissue culture plates containing 2 ml of media. Cells were transfected with 3-4 μg of plasmid DNA complexed with Lipofectamine™ 2000 (Invitrogen) according to the manufacturer's instructions. […] Parallel membranes were probed overnight with mAb 9B11 (1:5000, Cell Signaling Technology, Danvers, Massachusetts) to detect the c-myc epitope. Membranes were washed in TBST, and incubated in blocking buffer containing horseradish peroxidase-conjugated rabbit anti-mouse IgG (Biorad) at a 1:5000 dilution for 2 h at room temperature. Blots were then washed in TBST, and developed using autoradiographic film following incubation with Western Pico Chemiluminescent Substrate (Pierce, Rockford, Illinois).
(§1) Expression of EGFR proteins on the yeast cell surface was performed as previously described (Johns et al., 2004).

[1] = system: EGFR fragments displayed on yeast; assay: yeast surface display of EGFR fragments; type: binding, human
Method: as §1
Briefly, transformed colonies were grown at 30° C. in minimal media containing yeast nitrogen base, casein hydrolysate, dextrose, and phosphate buffer pH 7.4, on a shaking platform for approximately one day until an OD600 of 5-6 was reached. Yeast cells were then induced for protein display by transferring to minimal media containing galactose, and incubated with shaking at 30° C. for 24 h. Cultures were then stored at 4° C. until analysis. Raw ascites fluid containing the c-myc monoclonal antibody 9E10 was obtained from Covance (Richmond, CA). 1×10^6 yeast cells were washed with ice-cold FACS buffer (PBS containing 1 mg/ml BSA) and incubated with either anti-c-myc ascites (1:50 dilution), or human EGFR monoclonal antibody (10 μg/ml) in a final volume of 50 μl, for 1 hr at 4° C. The cells were then washed with ice cold FACS buffer and incubated with phycoerythrin-labelled anti-mouse IgG (1:25 dilution), in a final volume of 50 μl for 1 h at 4° C., protected from light. After washing the yeast cells with ice-cold FACS buffer, fluorescence data was obtained with a Coulter Epics XL flow cytometer (Beckman-Coulter), and analyzed with WinMDI cytometry software (J. Trotter, Scripps University). […]

DU145 xenografts = assay: established xenograft model; type: in vivo, nude mice; settings: day 67; 1 mg i.p.
Text: Xenografts were allowed to establish for 18 days before therapy commenced (3 times a week for 3 weeks on days indicated). At this time the average tumor volume was 90 mm^3 (FIG. 68D).

xenograft A431 = assay: immunohistochemistry of xenograft sections; design: species or system human
Method: (§2) Xenografts were excised and bisected. One half was fixed in 10% formalin/PBS before being embedded in paraffin. Four micron sections were then cut and stained with haematoxylin and eosin (H&E) for routine histological examination. The other half was embedded in Tissue Tek® OCT compound (Sakura Finetek, Torrance, CA), frozen in liquid nitrogen and stored at −80° C. Thin (5 micron) cryostat sections were cut and fixed in ice-cold acetone for 10 min followed by air drying for a further 10 min. Sections were blocked in protein blocking reagent (Lipshaw Immunon, Pittsburgh U.S.A.) for 10 min and then incubated with biotinylated primary antibody (1 mg/ml), for 30 min at room temperature (RT). All antibodies were biotinylated using the ECL™ protein biotinylation module (Amersham, Baulkham Hills, Australia), as per the manufacturer's instructions. After rinsing with PBS, sections were incubated with a streptavidin horseradish peroxidase complex for a further 30 min (Silenus, Melbourne, Australia). Following a final PBS wash the sections were exposed to 3-amino-9-ethylcarbozole (AEC) substrate (0.1 M acetic acid, 0.1 M sodium acetate, 0.02 M AEC (Sigma Chemical Co., St Louis, MO)) in the presence of hydrogen peroxide for 30 min. Sections were rinsed with water and counterstained with hematoxylin for 5 min and mounted.
(§3) Bound antibody was detected using the Dako Envision™+HRP detection system as per manufacturer's instructions. Sections were finally rinsed with water, counterstained with hematoxylin and mounted.

xenograft U87MG (native) = assay: immunohistochemistry of xenograft sections; design: species or system human
Method: as §2, §3

[2] = system: normal human liver sections; assay: immunohistochemistry with mAb175
Method: as §3
The U87MG cell line only expresses modest levels of the wild-type EGFR (FIG. 66A) and has no detectable EGFR autocrine loop.

[3] = target: C271A/C283A-EGFR on Ba/F3 cells (human) (UniProt P00533); assay: FACS median fluorescence, Ba/F3 cells, average for four independent clones, reference M2
[4] = target: wtEGFR-FLAG on Ba/F3 cells (human) (UniProt P00533); assay: FACS median fluorescence, Ba/F3 cells, reference M2 anti-FLAG
[5] = target: amplified / overexpressed wild-type EGFR (human) (UniProt P00533); assay: Scatchard analysis, 125I-labelled 528, A431 cells
[6] = target: amplified / overexpressed wild-type EGFR (human) (UniProt P00533); assay: IHC glioblastoma, amplified EGFR, no de2-7 EGFR
de2-7 EGFR (human) = de2-7 EGFR (human) (UniProt P00533); assay: IHC glioblastoma, amplified EGFR with de2-7 EGFR
[7] = target: EGFR peptide 287-302 (806 peptide epitope) (human); assay: BIAcore, peptide 287-302 immobilised by Pms-Ser coupling
[8] = target: EGFR peptide 287-302 (806 peptide epitope) (human); assay: BIAcore, peptide 287-302 immobilised by thiol coupling
[9] = target: EGFR peptide 287-302 (806 peptide epitope) (human); assay: BIAcore, peptide 287-302 immobilised by amine coupling
EGFR of A431 cells = EGFR of A431 cells (Homo sapiens, UniProt P00533); assay: ELISA of 806 reactivity in lysate of AG1478 treated cells; type: cell-based; settings: increasing amounts of AG1478 (0.5 μM and 5 μM)
A431 xenografts = assay: combination therapy with AG1478, preventative model; type: in vivo, mice; settings: 0.1 mg mAb806; 400 μg AG1478
Method: AG1478 (4-(3-Chloroanilino)-6,7-dimethoxyquinazoline) is a potent and selective inhibitor of the EGFR kinase versus HER2-neu and platelet-derived growth factor receptor kinase (Calbiochem Cat. No. 658552). […] The results are illustrated in FIG. 12. […] 400 μg AG1478 was administered at 0, 2, 4, 7, 9, and 11 days post xenograft.

[10] = system: established A431 xenografts; assay: in vivo 806 therapy study; design: species or system BALB/c nude mice; settings: 6 x 1 mg IP, versus PBS
Method: (§4) To establish xenografts, mice were injected subcutaneously into the right and left inguinal mammary line with 1×10^6 A431 […] cells or 1×10^6 U87MG.de2-7 glioma cells in 100 μl of PBS. Tumor volume (TV) was calculated by the formula [(length×width^2)/2] where length was the longest axis and width the measurement at right angles to length. […] Therapy was administered on days 6, 8, 11, 13, 15 and 18 for A431, and days 4, 6, 8, 11, 13 and 15 for the U87MG.de2-7 cell lines respectively. Mean±SEM tumor volumes until termination of the experiments due to ethical considerations of tumor burden are presented in FIG. 91 for the A431 xenograft until day 25, and in FIG. 92 for U87MG.de2-7 xenografts until day 31.

[11] = system: established U87MG.de2-7 xenografts; assay: in vivo 806 therapy study; design: species or system BALB/c nude mice; settings: 6 x 1 mg IP, versus PBS
Method: as §4

[12] = target: T1, denatured soluble domain of the EGFR (sEGFR) (Homo sapiens, UniProt P00533); assay: competition ELISA; type: binding; settings: after unlabeled blocking antibody
T1 construct: sEGFR is the recombinant extracellular domain (amino acids 1-621) of the wild-type EGFR; made in house; host or cells: CHO cells
Method: Briefly, the denatured soluble domain of the EGFR (sEGFR) was coated on to ELISA plates. The unlabeled 124 or 1133 antibodies were then added across the plate in increasing concentrations.

[13] = target: T2, EGFR peptide 287-302 (806 peptide epitope) (human, not fully specified (bridges); also: oxidized form in the crystals); assay: BIAcore, immobilised peptide, 200 nM antibody
T2 construct: Immobilised by amine, thiol or Pms-Ser coupling; oxidized form in the crystals
T2 peptide: CGADSYEMEEDGVRKC

xenograft U87MGΔEGFR = assay: immunohistochemistry of xenograft sections; design: species or system human

- Kd [7]: 35 nM
- Kd [8]: 143 nM
- Kd [9]: 154 nM
Molecule: mAb175 (antibody)

- Binding of biotin-labeled 806 [12]: None
- Binding to mAb806 peptide (RU), maximal [13]: 800 RU
B2: mAb1133 (antibody, mouse IgG2a, V domains shown)
VH: DVQLQGSGPSLVKPSQSLSLTCTVTGYSITSDYAWNWIRQFPGNKLEWMGYISYSGNTRYNPSLRSRISITRDTSKNQFFLQLNSVTTEDTATYYCATAGRGFPYWGQGTLVTVSA
VL: DILMTQSPSSMSVSLGDTVNITCHSSQDINSNIGWLQQKPGKSFKGLIYHGTNLDDGVPSRFSGSGSGADYSLTISSLESEDFADYYCVQYGQFPWTFGGGTKLEIKR
notes: Mouse IgG2a; variable domains only
- immunohistochemical staining (xenograft A431): pos. (predominantly
- immunohistochemical staining (xenograft U87MGΔEGFR): pos.

The next lines start with the molecule.

Molecule: mAb175: murine monoclonal antibody, SEQ ID NO:129 and SEQ ID NO:134
- FACS binding (DU145 cells): bind to DU145 cells
- reactivity with EGFR fragments (EGFR fragments): reacted with both the 274-501 and 282-501 EGFR fragments; also recorded: did not detect fragments commencing at amino acid 290 or 298; also recorded: a 274-501 EGFR fragment with the mAb806 epitope deleted (Δ287-302) was also negative for mAb175 binding
- binding to EGFR fragments [1]: recognized the yeast fragment 273-621; also recorded: not to fragments 1-176, 1-294, 294-543, or 475-621; also recorded: binds to the denatured fragment of the 273-621
- mean tumor volume (DU145 xenografts): 815 mm^3
- immunohistochemical staining (xenograft A431): stains
- immunohistochemical staining (xenograft U87MG (native)): does not stain
- staining [2]: does not bind

Molecule: 528 antibody
- ratio of antibody binding mAb 528/M2 [3]: 1.08
- ratio of antibody binding mAb 528/M2 [4]: 1.37
- binding sites per cell (sites per cell) [5]: 2e+06
- percent of immunoreactive cells [6]: > 75%
- percent of immunoreactive cells (de2-7 EGFR (human)): > 75%

Molecule: COc1cc2ncnc(Nc3cccc(Cl)c3)c2cc1OC [AG1478, 4-(3-Chloroanilino)-6,7-dimethoxyquinazoline, reference compound]
- mAb806 binding to EGFR in cell lysate (EGFR of A431 cells): significantly increased
- tumor volume (A431 xenografts): significant reduction of tumor volume

B1: hu806: humanized (veneered) 806 antibody, SEQ ID NO:42 and SEQ ID NO:47 (antibody, V domains shown)
VH: MDWTWRILFLVAAATGVHSQVQLQESGPGLVKPSQTLSLTCTVSGYSISSDFAWNWIRQPPGKGLEWMGYISYSGNTRYQPSLKSRITISRDTSKNQFFLKLNSVTAADTATYYCVTAGRGFPYWGQGTLVTVSS
VL: MDWTWRILFLVAAATGVHSDIQMTQSPSSMSVSVGDRVTITCHSSQDINSNIGWLQQKPGKSFKGLIYHGTNLDDGVPSRFSGSGSGTDYTLTISSLQPEDFATYYCVQYAQFPWTFGGGTKLEIKR
- xenograft growth [10]: marked reduction in A431 xenograft growth
- xenograft growth [11]: significant reduction in tumor growth by day 20

Source: patent US20240117073A1, “METHODS OF TREATING NEOPLASTIC ASTROCYTOMA” (Ludwig Institute for Cancer Research Ltd., priority 2009, published 2024)
